Assay results reported in the DeepSol protein solubility set.

Assay: soluble on expression in E. coli; label from the status in PepcDB or PDB records

Soluble on expression in E. coli, soluble:
MKVLRHGLFKDRRVFDENYIPPELRVRRGEAEALARIYLNRLLSGAGLSDVNMIYGSIGRVGIGKTTLAKFTVKRVSEAAAKEGLTVKQAYVNAFNAPNLYTILSLIVRQTGYPIQVRGAPALDILKALVDNLYVENHYLLVILDEFQSMLSSPRIAAEDLYTLLRVHEEIPSRDGVNRIGFLLVASDVRALSYMREKIPQVESQIGFKLHLPAYKSRELYTILEQRAELGLRDTVWEPRHLELISDVYGEDKGGDGSARRAIVALKMACEMAEAMGRDSLSEDLVRKAVSENEAASIQTHELEALSIHELIILRLIAEATLGGMEWINAGLLRQRYEDASLTMYNVKPRGYTQYHIYLKHLTSLGLVDAKPSGRGMRGRTTLFRLAPHLPADRLIEVVDNIIQAKMASGYE
MKVMECQTYEELSQIAARITADTIKEKPDAVLGLATGGTPEGTYRQLIRLHQTENLSFQNITTVNLDEYAGLSSDDPNSYHFYMNDRFFQHIDSKPSRHFIPNGNADDLEAECRRYEQLVDSLGDTDIQLLGIGRNGHIGFNEPGTSFKSRTHVVTLNEQTRQANARYFPSIDSVPKKALTMGIQTILSSKRILLLISGKSKAEAVRKLLEGNISEDFPASALHLHSDVTVLIDREAASLRP
MKVRASVKRICDKCKVIRRHGRVYVICENPKHKQRQG
MKVTDVRLRKIQTDGRMKALVSITLDEAFVIHDLRVIEGNSGLFVAMPSKRTPDGEFRDIAHPINSDMRQEIQDAVMKVYDETDEVIPDKNATSDNEESDEA
MKWGFRWYGAAGDAIPLKHIRQIPGITGVVGTLLNKLPGDVWTVAEIQALKQSVEQEGLALLGIESVAIHDAIKAGTDQRDHYIDNYRQTLRNLGKCGISLVCYSFKPIFGWAKTDLAYENEDGSLSLLFDQAVVENMQPEDMYQLIHSQSKGFRLPGWEEERLQQFQELKAMYAGVTEEDLVENLRYFLERVIPVCEEENIKMGIHPDDPPWEIFGLPRITKNLADLKRILSLVDSPANGITFCTGSLGADPTNDLPTMIREIGHRINFVHFRNVKYLGEHRFEETAHPSVAGSLDMAELMQALVDVGYEGVIRPDHGRAIWDEKAMPGYGLYDRAMGLTYIQGLYEATKAKQNRKLEHHHHHH
MLAKRIIPCLDVDKGRVVKGVKFLNLRDAGDPVEVAKRYEEEGADELVFLDITASAEDREIMIDVVKKVAETVFMPFTVGGGIRSLEDMRRLLEAGADKISINTAAVKNPNLIYEGAKRFGSQCIVVAIDAKRKGNSWEVYIHGGRTPTGLDAVEWAKKVESLGAGEILLTSMDRDGTKDGYDIELNRAISEAVNIPVIASGGAGKKEHFYEVFSKTKVEAALAASVFHFREISIPELKEYLLERGINVRPLD
MLDLLVVAPHPDDGELGCGGTLARAKAEGLSTGILDLTRGEMGSKGTPEEREKEVAEASRILGLDFRGNLGFPDGGLADVPEQRLKLAQALRRLRPRVVFAPLEADRHPDHTAASRLAVAAVHLAGLRKAPLEGEPFRVERLFFYPGNHPFAPSFLVKISAFIDQWEAAVLAYRSQFTGEAASETVGPKGVEARKAMRRYWGNYLGVDYAEPFVSPLPVLYVPWSRA
MLEANVYDNFNPNYYNISDFSMPNGKKEKRGLPIPKARCQVINYELWETGYLYTSSATLTVSVEVGDIVQILFPEVVPIEEALGKKKKLNLDMVYLVTDVDESNKATLKNYFWAMIESLDVPNAITKTTNFAIIDYLIDPNKNNLMSYGYFFNSSIFAGKATINRKAETSSAHDVAKRIFSKVQFQPTTTIQHAPSETDPRNLLFINFASRNWNRKRITTRVDIKQSVTMDTETIVERSAYNFAVVFVKNKATDDYTDPPKMYIAKNNGDVIDYSTYHGDGTDLPDVRTAKTLFYDRDDHGNPPELSTIKVEISPSTIVTRLIFNQNELLPLYVNDLVDIWYEGKLYSGYIADRVKTEFNDRLIFVESGDKPNVI

Soluble on expression in E. coli, not soluble:
MKVIFNADDFGLTQGVNQGIVKAHLDGVVKSTTLMVGMPAEQHAVQLAKQLPDLKIGLHLRFTAGRPLTGERNLTDEHGVFTAYRDFWQRRDYQPEAIYHEAIAQVEHFLKLGLTLSHLDSHHHAHTHPQLAPIIYEVAKKYHVPLRDIGMAGEEAFGCRYHFTDFFYDQRLGIDPLMKHLLELKERFDLVEVMCHPAFVDPLLEKCSGYAKQREEELHILTSAQLIQLLVAHDIEITDYSALISAPLHSCV
MKVSTKDKIIESAVMLFNQKGFSGTSVREIAKSADVNVAHISYYFKGKGGLMEHLVSEFYEGYSKTLETAASNISTQSTQEQLLQLVFDILSYQHNHRQLTRFVYREVTIDSTLIREIMSTYLMKEKYIFQLIIEEGEKQREYLTLPLPHFILQLKSLLMMPYLQPQYISEVLYMQPHEPYFYKMYFEEIKIWIRSVFRTGDVALTN
MKWYTKYLQVYEKPFSEAPQEIVEEVRNKLKLLQSDNPLVTVSLIGYNEEKHLLASLWSLSEMKCKYPIEIIGTDNDSKDQTATIYEATGIPYVIEHQHSCGHARLCGLKRAKGKYHINIDSDTMYPPHYVETMVDALERPGIVAVSSLWSYIPDKEHSWVGLKIYEFIRDIHLWIQSIKRPELSVRGLVFAYRTDYARQVGIRTDIRRGEDGSLALRLKEYGNIYFIRKRKARAITGYGTISADGSLFNSFKVRAIYALKNIGRVFTRKKEYKDEDDNLIKS
MKYEVVITSGNSNQAPIGAFFKGDFVTLHLYGGSHTFENLQKDGFYILNTCSPYLIAKSVLDDAGDYEYLDNDGIKIPYLKDSYKIELIEIKSRKIVETKNEFGSSKLMIVEGKPIFEKILNCNTSAYNRADGAVVEMAVLYSRKNMISKEEINDEITRLMKIIKKVGSKNHIELAKKLGVLEHHHHHH
MKYFLPLDVSLASAYLKATMSFKDPPTLQQLARRSLLKDEALTISALLNLPVQLFPPLFKDAFTSRQRKILSLMVAAWPFPVLPVGALGGIDHLETLKAVLDGLDLLMSQKDRPRWNLQVLDLGNAHQDFWDGWAGLLHEVCSQDVFGKNQPVGNHPIPGGKQTITIKMNLSLKYCRHSKYLNYLHWWAEQRKDGIQVICEKLEFTGPHSSIQELAIKSIHWDIYNLALIASCLGQMKNLQKLILMNIRRPPDLADLQEAHIVTEIFSEFSKLHKVHYLHVNNVYFLKERLDQMLRCFERPLETLAITHCRLSELDMRYLSQCPSIHQLKYLDMSYTTFKPSSHRFLGSLLERLTATLQTLKLECFHLTDFQIRDLLPGLSQCSQLTEVDIAMNEFSVVSLKKLLKHTANLTQLTLEKYPAPVEVYDDGHSVISDRFVQLCSELMNTLKGVRQAKQVYFVSMPCLRNYEFLIYNLKGLDSSEQLRRRGLSWALINGEQVSRDSLQL
MKYKILLKGKQYFATINLFDGRIAMDVQVQFMAELSQLIDKLSFLSRDQLKIALKGYKPAEVHTIEFIGEHSETNVTAIASALYVTRGAVSKITKRLISRGLIVRYQKPDNQKEVYFKLTAQGQEVFEIHKKFTNYFMQRDEPIFRDSPDAVATTLAFLHQYNAFLDQKLTIKK
MKYQQLENLESGWKWKYLVKKHREGELITRYVEASAAQEAVNLLLALENEPVRVNVWIDRHMNPALLNRMKQTIRARRKRHFNAEHQHTRKKSIDLEFMVWQRLAGLAQRRGKTLSETIVQLIEDAEHKEKYATQMTTLKQDLQALLGKK
MKYQVLLYYKYTTIEDPEAFAKEHLAFCKSLNLKGRILVATEGINGTLSGTVEETEKYMEAMQADERFKDTFFKIDPAEEMAFRKMFVRPRSELVALNLEEDVDPLETTGKYLEPAEFKEALLDEDTVVIDARNDYEYDLGHFRGAVRPDIRSFRELPQWIRENKEKFMDKKIVTYCTGGIRCEKFSGWLLKEGFEDVAQLHGGIANYGKNPETRGELWDGKMYVFDDRISVEINHVDKKVIGKDWFDGTPCERYINCANPECNRQILTSEENEHKHLGGCSLECSQHPANRYVKKHNLTEAEVAERLALLEAVEV
MKYRIVRIELKSDDEVTLYLKSASRKPGVMAKADFSDPVKVIEFGLQMGMDLARRIEELMQFDAFLTVPYDYYSMNELKVGDVVEVEVRLAER
MLAGHLFAGVGEDVRLFKGITMTYGHNIELGDNAVVHDGVHLDDRGELVVGARASVSNGAHLYTHDHDVVDQTDVTNYRTEIGADARVTQGALVRAGVRVGENALVGSRSVVQGDVPAHHIAVGSPAESVRVKPGWLEHHHHHH
MLAKRSIALTAATLLREPILRREDIADSLLARDILADARQQATQILALEQEKAEHLQQQALAQFWENANAFLGELQVQREALQEQAMTAVEELLSESLRHLLDDTTLAERARALARNLAASQLNEAVATLSVHPQIADAVAEWLADSRFSEHWQLKRDATIASDSLRLSDANGAFDIAWADLRKGLLGVEPAA
MLASRRLLPQISSRALSTSPALKSSEISVKEERPYVYNVKLNRPAKLNTFTMDMWREFKKAIDSLADDPKCRSIIISGEGKAFCAGIDIAHGLSDILRIIQDDTIEVGRKGRLVRKFIGEIQDCYTALERCPKPIIASIHSHCLGAGIDLITACDIRVASQDAIFSIREVDVGLAADIGTLNRIQKVVGNDSWTRDVAFTARDFGADEALRFGLISRIYDDRQSLLENSIDMAARIAEKSPIAVQGTKETLNYAREHSTDDSLNFIKTWNMSQLLSTDLLSSAMAVMNKKKATYEDV
MLDLTTNPIDLTRALVDIESPSHYEKNIADAIEQALHAIDNVEVLRHGNTLVARTHRGLGERVILAGHIDTVPIADNVPSHMEGDVMFGCGTVDMKSGMAVYLHAFATLANHPALAKDLTVVCYEGEEVASEYNGLGHVQAAHPDWLSGDLALLGEPSGAVIEAGCQGTIRLRVTAHGVRAHSARSWLGDNAMHKLAPVITNIAQYHAQEMLVDGCLYHEGLNIVHCESGVATNTIPDEAWMFVNFRFAPNRSVDEALAHMLEVLDLPEGVTYDIDDAVPGARPGLDRPAAAALLEATGGKFRAKYGWTDVSRFSEIGVPAVNFGPGDPAYCHKKDEQCPVSMITEVSRTLVHYLTSTNSQTTGA
MLDPARSFDIIGDVHGCALTLERLLDALGYKRVAGVWRHPRRQALFLGDIVDRGPRIREALHIVHDMVEAGQAFCIMGNHEYNALGWVTPALPGSGKAYVREHTPRHARLIDETLTQFAQHPGDWHDFVNWFYQLPLFIDAGRFRLVHALEHHHHHH
MLDQVCQLARNAGDAIMQVYDGAKPMDVVSKADNSPVTAADIAAHTVIMDGLRTLTPDIPVLSEEDPPGWEVRQHWQRYWLVDPLDGTKEFIKRNGEFTVNIALIDHGKPILGVVYAPVMNVMYSAAEGKAWKEECGVRKQIQVRDARPPLVVISRSHADAELKEYLQQLGEHQTTSIGSSLKFCLVAEGQAQLYPRFGPTNIWDTAAGHAVAAAAGAHVHDWQGKPLDYTPRESFLNPGFRVSIY
